Assay results from publication PMC12478167.

Assays:
[1] = biological target: sLilrB2, a soluble Fc-tagged form of LilrB2 containing the entire extracellular domain (human) (UniProt Q8N423); assay: SPR
[2] = biological target: Myc-tagged LilrB2 expressed in HEK293 cells (human) (UniProt Q8N423); assay: immunostaining of cells or tissue
[3] = biological target: HA-PirB expressed in HEK293 cells (mouse) (UniProt P97484); assay: immunostaining of cells or tissue
[4] = biological target: endogenous PirB in mouse cortical neurons (mouse (endogenous in cortical neurons)) (UniProt P97484); assay: immunostaining of cells or tissue

C4d, terminal split product of complement component C4 (from UniProt P0C0L4 957-1336) (domain or fragment)
Kd [1]: 3 nM | Kd [2]: 37 nM | Kd [3]: 56 nM | Kd [4]: 380 nM
